Values of other authors in PMC5012295.

Target: Complement C4b (Homo sapiens) (UniProt P0C0L4)
Test: AlphaScreen

Sequence of UniProt P0C0L4 (P0C0L4 20-675, chain 1 of 2): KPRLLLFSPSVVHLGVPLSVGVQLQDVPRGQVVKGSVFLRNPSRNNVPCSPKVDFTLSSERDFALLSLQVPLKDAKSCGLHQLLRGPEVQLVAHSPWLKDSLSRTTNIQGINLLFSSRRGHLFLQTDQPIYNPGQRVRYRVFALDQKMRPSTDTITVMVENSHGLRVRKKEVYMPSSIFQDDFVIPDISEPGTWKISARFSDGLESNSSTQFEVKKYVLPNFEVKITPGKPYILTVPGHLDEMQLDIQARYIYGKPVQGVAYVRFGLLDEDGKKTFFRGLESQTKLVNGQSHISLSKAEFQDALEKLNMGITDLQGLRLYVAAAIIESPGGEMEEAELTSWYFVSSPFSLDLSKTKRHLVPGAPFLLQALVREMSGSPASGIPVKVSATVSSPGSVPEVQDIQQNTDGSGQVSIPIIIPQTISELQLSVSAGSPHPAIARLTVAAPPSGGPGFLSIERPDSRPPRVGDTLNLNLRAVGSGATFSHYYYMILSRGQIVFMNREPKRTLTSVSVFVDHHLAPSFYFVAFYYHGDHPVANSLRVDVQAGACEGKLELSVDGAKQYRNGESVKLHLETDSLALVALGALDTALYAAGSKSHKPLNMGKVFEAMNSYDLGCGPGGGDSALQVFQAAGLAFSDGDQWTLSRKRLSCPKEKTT
Sequence of UniProt P0C0L4 (P0C0L4 20-675, chain 2 of 2): as the sequence (P0C0L4 20-675, chain 1 of 2) above

Row | Substance | Kd
1 | Eap34 domains 3-4 (from UniProt Q99QS1) | 525 nM
2 | Eap (from UniProt Q99QS1) | 185 nM
